Data from article PMC3499583.
Where “and” joins values, the source holds several entries; their conditions need not be identical. Equal entries are not always repeated.

Legend:
[1] = molecular target: purified monomeric Semaphorin-7A ectodomain (Cd4d3+4-His6) (human); test: SEC + other: amino acid analysis; peak fraction of the SEC of the equimolar mixture; amino acid composition compared with theoretical 1:1, 2:1 and 1:2 (Semaphorin-7A:MTRAP)
[2] = molecular target: Human Semaphorin-7A entire ectodomain, biotinylated bait (Cd4d3+4-biotin) (human); test: SPR; kinetic (dissociation model fitted to a family of binding curves); biotinylated Semaphorin-7A or its variants captured on a streptavidin-coated chip, serial dilutions of purified MTRAP injected at 100 µl/min; Biacore T100, 37°C, HBS-EP
[3] = molecular target: Human Semaphorin-7A ectodomain, natural variant Q457K, biotinylated bait (human); test: as above
[4] = molecular target: Human Semaphorin-7A ectodomain, natural variant R474L, biotinylated bait (human); test: as above
[5] = molecular target: Human Semaphorin-7A ectodomain, natural variant Q530P, biotinylated bait (human); test: as above
[6] = molecular target: Human Semaphorin-7A ectodomain, natural variant E473V, biotinylated bait (human); test: as above
[7] = molecular target: Human Semaphorin-7A ectodomain, natural variant R475T, biotinylated bait (human); test: as above
[8] = molecular target: Human Semaphorin-7A ectodomain, natural variant R460H, biotinylated bait (human); test: as above
[9] = molecular target: Human Semaphorin-7A ectodomain, natural variant S115T, biotinylated bait (human); test: as above
[10] = molecular target: Human Semaphorin-7A ectodomain, natural variant R207Q, biotinylated bait (human); test: as above
[11] = molecular target: P. falciparum MTRAP entire ectodomain, biotinylated bait (Cd4d3+4-biotin) (P. falciparum); test: SPR; equilibrium (steady state affinity model); biotinylated MTRAP or TSR1+2 captured on a streptavidin-coated chip, serial dilutions of purified Semaphorin-7A injected at 20 µl/min; Biacore T100, 37°C, HBS-EP; reference flow cell with biotinylated rat Cd4d3+4
[12] = molecular target: P. falciparum MTRAP TSR1+2 fragment, biotinylated bait (Cd4d3+4-biotin) (P. falciparum); test: as above
[13] = molecular target: Semaphorin-7A Sema domain, biotinylated bait (human) (UniProt O75326); test: SPR; Biacore T100; biotinylated Semaphorin-7A ectodomain, PNGase F-treated form, single domains or variants captured on a streptavidin chip, purified monomeric MTRAP injected; reference biotinylated rat Cd4d3+4; 37°C, HBS-EP
[14] = molecular target: Semaphorin-7A entire ectodomain, biotinylated bait (human); test: as above
[15] = molecular target: PNGase F-treated Semaphorin-7A, biotinylated bait (human); test: as above
[16] = molecular target: MTRAP entire ectodomain, biotinylated bait (P. falciparum); test: SPR; Biacore T100; biotinylated MTRAP or TSR baits captured on a streptavidin chip, serial dilutions of purified Semaphorin-7A injected (20 µl/min for equilibrium); reference biotinylated rat Cd4d3+4; 37°C, HBS-EP
[17] = molecular target: MTRAP TSR1+2 fragment, biotinylated bait (P. falciparum); test: as above
[18] = molecular target: purified monomeric Semaphorin-7A ectodomain (Cd4d3+4-His6) (human); test: SEC; Superdex 200 Tricorn 10/600 in HBS-EP; nickel-purified His-tagged proteins alone and mixed at equimolar concentrations; fractions on SDS-PAGE, Coomassie
[19] = molecular target: purified monomeric Semaphorin-7A ectodomain (Cd4d3+4-His6) (human); test: SEC-MALS; Superdex200 10/30 in 50 mM Tris.HCl pH 7.5, 150 mM NaCl, 0.4 ml/min; Dawn Heleos-II and Optilab-Rex

UniProt O75326, sequence (O75326 53-490): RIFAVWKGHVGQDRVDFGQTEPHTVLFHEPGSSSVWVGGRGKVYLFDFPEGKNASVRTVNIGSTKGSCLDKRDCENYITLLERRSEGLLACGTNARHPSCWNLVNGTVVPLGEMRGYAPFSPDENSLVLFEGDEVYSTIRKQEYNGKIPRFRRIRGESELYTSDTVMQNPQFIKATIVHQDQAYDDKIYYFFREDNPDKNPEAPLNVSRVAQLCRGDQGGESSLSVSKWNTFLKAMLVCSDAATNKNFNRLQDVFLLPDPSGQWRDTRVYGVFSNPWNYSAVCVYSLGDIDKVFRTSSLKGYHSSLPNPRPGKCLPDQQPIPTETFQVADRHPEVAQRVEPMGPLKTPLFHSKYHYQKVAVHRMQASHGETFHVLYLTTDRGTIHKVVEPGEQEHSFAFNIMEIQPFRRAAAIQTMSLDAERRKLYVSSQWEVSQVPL

With “monomeric His-tagged MTRAP ectodomain lacking the Cd4d3+4-tag (domain or fragment)” the stoichiometry N [1] was 1.
In the case of “P. falciparum MTRAP entire ectodomain, monomeric His-tagged, purified (domain or fragment)”, the koff [2] is reported as 0.058 s⁻¹ and 0.054 s⁻¹ and 0.056 s⁻¹, the koff [3] is reported as 0.053 s⁻¹ and 0.058 s⁻¹ and 0.056 s⁻¹ and the koff [4] is reported as 0.046 s⁻¹ and 0.057 s⁻¹ and 0.052 s⁻¹. The koff [5] was 0.05 s⁻¹ and 0.055 s⁻¹ and 0.053 s⁻¹, the koff [6] was 0.056 s⁻¹ and 0.054 s⁻¹ and 0.055 s⁻¹ and the koff [7] was 0.059 s⁻¹ and 0.053 s⁻¹ and 0.056 s⁻¹. The koff [8] was 0.049 s⁻¹ and 0.051 s⁻¹ and 0.05 s⁻¹, the koff [9] was 0.053 s⁻¹ and 0.047 s⁻¹ and 0.05 s⁻¹ and the koff [10] was 0.054 s⁻¹ and 0.045 s⁻¹ and 0.05 s⁻¹.
For “Human Semaphorin-7A entire ectodomain, soluble monomeric His-tagged (Cd4d3+4-His6), purified (domain or fragment)”, the Kd [11] was 1.07 µM and 0.85 µM and 1.62 µM and the Kd [12] was 1.94 µM and 1.93 µM and 2 µM.
In the case of “purified monomeric MTRAP (His-tagged ectodomain, analyte in SPR) (domain or fragment)”, the Kd [13] is reported as 0.83 µM, the koff [14] is reported as 0.061 s⁻¹ and the koff [15] is reported as 0.063 s⁻¹.
Work on “purified monomeric Semaphorin-7A ectodomain (Cd4d3+4-His6) (domain or fragment)” yielded a Kd [16] of 1.18 µM, a Kd [17] of 1.96 µM and a stoichiometry N [18] of 2. For the same substance, the stoichiometry N [19] was 2.
